The text below walks through data of patent publication US20240132603A1 (HARBOUR BIOMED US, published 2024).

Positions count from the first letter of the chain named. Where two headings read alike, the source gives them in different places.

The target in assay [1] is T1, human CCR8 (human, UniProt P51685 1-355).
T1 construct: whole, on cells; construct used for the overexpressing cell lines is not described; also called hCCR8
Nature of the assay: FACS, CHO-K1-hCCR8 cells. As to the method: (§1) Cells overexpressing human CCR8 were digested with pancreatin, counted and resuspended to a cell density of 1E6 cells/mL. The cell suspension was added to a 96-well V-bottom plate at 100 μL/well and centrifuged at 300 g for 5 min, and the supernatant was discarded. The anti-CCR8 antibodies provided herein was used as a primary antibody and diluted in a 5-fold gradient with an FACS buffer (DPBS containing 2% FBS) from 200 nM. The diluted primary antibody was added at 100 μL/well to resuspend the cells, and the mixture was incubated at 4° C. for 1 h. The plate was washed twice with DPBS and centrifuged at 300×g for 5 min, and the supernatant was discarded. The secondary antibody diluted in a 1:1000 ratio with an FACS buffer was added at 100 μL/well to suspend the cells, and the mixture was incubated at 4° C. for 40 min. The plate was washed twice with DPBS and centrifuged at 300×g for 5 min, and the supernatant was discarded. DPBS was added at 200 μL/well to suspend the cells, and the mixture was loaded on an FACS machine for analysis.

Assay [2] has as its target T1, human CCR8. In words: FACS, Baf3-hCCR8 cells. As for the experimental part: as §1
In assay [3] the target is T1, human CCR8. In words: FACS, HEK293-hCCR8 cells. As to the method: as §1
Assay [4] concerns the target T1, human CCR8. In words: FACS, CHO-K1-hCCR8 cells. As for the experimental part:
as §1
The source holds these as a separate data set.

Assay [5] has as its target T2, cynomolgus monkey CCR8 (cynomolgus monkey, UniProt G7NYJ2 1-355).
T2 construct: whole, on cells; also called CynoCCR8
In words: FACS, CHO-K1-CynoCCR8 cells. As to the method: as §1, with “cynomolgus monkey CCR8, CHO-K1-CynoCCR8,” for “human CCR8”

For assay [6], the target named is T2, cynomolgus monkey CCR8. Nature of the assay: FACS, CHO-K1-CynoCCR8 cells. As to the method: as §1, with “cynomolgus monkey CCR8, CHO-K1-CynoCCR8,” for “human CCR8”
This is another data set of the same source.

T1 sequence (P51685 whole entry): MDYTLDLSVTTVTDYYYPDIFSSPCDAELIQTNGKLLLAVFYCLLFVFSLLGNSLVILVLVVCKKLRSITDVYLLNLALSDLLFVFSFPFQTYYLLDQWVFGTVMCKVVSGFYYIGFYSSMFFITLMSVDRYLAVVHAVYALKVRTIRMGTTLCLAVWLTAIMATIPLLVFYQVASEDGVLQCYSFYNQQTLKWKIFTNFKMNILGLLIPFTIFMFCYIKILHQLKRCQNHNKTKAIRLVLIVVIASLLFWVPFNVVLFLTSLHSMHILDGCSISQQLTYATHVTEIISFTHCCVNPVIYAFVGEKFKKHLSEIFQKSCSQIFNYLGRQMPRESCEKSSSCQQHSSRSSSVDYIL
T2 sequence (G7NYJ2 entry or part of it): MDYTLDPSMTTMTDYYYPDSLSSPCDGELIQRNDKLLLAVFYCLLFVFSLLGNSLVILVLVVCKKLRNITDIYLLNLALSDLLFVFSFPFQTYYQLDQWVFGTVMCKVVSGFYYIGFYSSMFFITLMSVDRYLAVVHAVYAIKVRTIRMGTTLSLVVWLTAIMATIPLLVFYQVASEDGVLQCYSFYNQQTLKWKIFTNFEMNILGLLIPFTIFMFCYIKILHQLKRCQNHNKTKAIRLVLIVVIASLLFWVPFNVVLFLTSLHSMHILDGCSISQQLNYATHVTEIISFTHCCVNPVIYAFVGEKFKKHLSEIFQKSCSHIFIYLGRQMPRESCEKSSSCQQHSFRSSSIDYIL

B1: PR004120 (antibody, human IgG1, kappa, V domains shown)
VH: EVQLVESGGGLVQPKGSLKLSCAASGFTFNTNAMNWVRQAPGKGLEWVARIRSKMNNYATYYADSVKDRFTISRDDSQNMLYLQMNNLKTEDTAMYYCVRGKENGNYYAMDFWGQGTSVTVSA
VL: DIVMTQAATSVLVTPGESVSISCRSSKSLLYSNGNTYLYWFLQRPGQSPQLLIYRMSNLASGVPDRFSGSGSGTAFTLRISRVEAEDVGVYYCMQHLEYPFTFGGGTKLEIKR
notes: chimeric, human IgG1 constant region
On to B1, for which the values for the EC50 in assay [1], in assay [2] and in assay [3] were 0.54 nM, 0.24 nM and 1.1 nM, respectively.

B2: PR004124 (antibody, human IgG1, kappa, V domains shown)
VH: EVKVEESGGGLVQPGGSMKLSCAASGFTFNTYAMNWVRQAPGKGLEWVARIRSKSNNYATYYADSVKDRFTISRDDSQSMLYLQMNNLKTEDTAMYYCVRGKDYGNYYAMDFWGQGTSLTVSS
VL: B1 VL with A7D, A8E, T9L, V11N, L12P, P15S, Y31H, I111L
notes: as for B1
In the case of B2, the values for the EC50 in assay [1], in assay [2] and in assay [3] were 0.45 nM, 0.17 nM and 0.58 nM, respectively.

B3: PR004129 (antibody, human IgG1, kappa, V domains shown)
VH: B2 VH with K3Q, V4L, E5V, G15K, M18L, F112Y, L119V
VL: DILLTQSPAILSVSPGERVSFSCRSSKSLLHSNGNTYLYWFLQRPGQSPQLLIYRMSNLASGVPDRFSGSGSGTAFTLRISRVEAEDVGVYYCMQHLEYPFTFGSGTKLEINR
notes: as for B1
Take B3: the EC50 came to 0.25 nM in assay [1], 0.06 nM in assay [2] and 0.34 nM in assay [3].

B4: PR004334 (antibody, human IgG1, kappa, V domains shown)
VH: EVQLVESGGGLVQPGGSLRLSCAASGFTFNTNAMNWVRQAPGKGLEWVSRIRSKSNNYATYYADSVKDRFTISRDDSKSTLYLQMNSLRAEDTAVYYCVRGKENGNYYAMDFWGQGTTVTVSS
VL: B1 VL with T9P, L12P, Y31H, N35K, T36I, F101L, G105A
notes: heavy-chain semi-humanized variant of PR004128, IgG1 with DE mutation
Turning to B4, the EC50 came out at 1.33 nM in assay [4] and 7.5 nM in assay [5].

B5: PR004344 (antibody, human IgG1, kappa, V domains shown)
VH: B1 VH with N32Y, M55S, N79S
VL: DIVMTQSPLSLPVTLGQPASISCRSSKSLLHSNGNTYLYWFQQRPGQSPRLLIYRMSNLASGVPDRFSGSGSGTDFTLKISRVEAEDVGVYYCMQHLEYPLTFGQGTKLEIKR
notes: light-chain semi-humanized variant of PR004128, IgG1 with DE mutation
As for B5, the EC50 was 1 nM in assay [4] and 3.51 nM in assay [5].

B6: PR004345 (antibody, human IgG1, kappa, V domains shown)
VH: B1 VH with N32Y, M55S, N79S
VL: B5 VL with S26N
notes: as for B5
As for B6, the EC50 turned out to be 1.12 nM in assay [4] and 5.96 nM in assay [5].

B7: PR004333 (antibody, human IgG1, kappa, V domains shown)
VH: B4 VH with N32Y
VL: B1 VL with T9P, L12P, Y31H, N35K, T36I, F101L, G105A
notes: as for B4
B7: the EC50 in assay [4] was found to be 0.91 nM; in assay [5], 4.97 nM.

B8: PR004343 (antibody, human IgG1, kappa, V domains shown)
VH: B1 VH with N32Y, M55S, N79S
VL: B5 VL with N35K, T36I
notes: as for B5
For the molecule B8, the EC50 stood at 1.08 nM in assay [4] and 6.38 nM in assay [5].

B9: PR004335 (antibody, human IgG1, kappa, V domains shown)
VH: B4 VH with N32Y, F112Y
VL: B1 VL with T9P, L12P, Y31H, N35K, T36I, F101L, G105A
notes: as for B4
Regarding B9, the EC50 is 0.97 nM in assay [4] and 3.52 nM in assay [5].

B10: PR004126 (antibody, human IgG1, kappa, V domains shown)
VH: B1 VH with N30S, A49G, M55S, N79S
VL: B1 VL with M4I, T9P, L12P, Y31H, G105A, I111L
notes: as for B1
Consider B10, for which the EC50 in assay [1] worked out at 0.43 nM; in assay [2], 0.18 nM; in assay [3] it was 0.58 nM.

B11: PR004130 (antibody, human IgG1, kappa, V domains shown)
VH: B1 VH with P14F, A23G, A24T, N32Y, M55S, Y61F, A123S
VL: B1 VL with T9P, L12P, Y31H, G105S
notes: as for B1
B11: the EC50 is 0.46 nM in assay [1], 0.2 nM in assay [2] and 0.8 nM in assay [3].

B12: PR005565AF (antibody, human IgG1, kappa)
heavy: not shown
light: DIVMTQSPLSLPVTLGQPASISCRSSKSLLHSNAKIYLYWFQQRPGQSPRLLIYRMSNLASGVPDRFSGSGSGTDFTLKISRVEAEDVGVYYCMQHLEYPLTFGQGTKLEIKRTVAAPSVFIFPPSDEQLKSGTASVVCLLNNFYPREAKVQWKVDNALQSGNSQESVTEQDSKDSTYSLSSTLTLSKADYEKHKVYACEVTHQGLSSPVTKSFNRGEC
modifications: afucosylated (AF) Fc glycan, produced with 2-fluoro peracetylated fucose
notes: also called PR005565F
Consider B12, for which the EC50 in assay [1] amounted to 0.38 nM; in assay [6] it was 0.62 nM.

B13: PR004123 (antibody, human IgG1, kappa, V domains shown)
VH: B1 VH with G26E, N32Y, S53T, M55S, Y58F, N79S, Y82F
VL: B1 VL with T9P, L12P, Y31H, I111L
notes: as for B1
On to B13, for which the EC50 was determined as 0.46 nM in assay [1], 0.2 nM in assay [2] and 0.62 nM in assay [3].

B14: PR004331 (antibody, human IgG1, kappa, V domains shown)
VH: B4 VH with Q13K, S49G, R89K, A90T
VL: B1 VL with T9P, L12P, Y31H, N35K, T36I, F101L, G105A
notes: as for B4
B14: the EC50 in assay [4] turned out to be 1.03 nM; in assay [5], 6.99 nM.

B15: PR004127 (antibody, human IgG1, kappa, V domains shown)
VH: B1 VH with S7T, M55S, A123S
VL: B1 VL with I111M
notes: as for B1
Turning to B15, the EC50 in assay [1] amounted to 0.56 nM; in assay [2], 0.26 nM; in assay [3] it was 0.86 nM.

B16: PR006154 (antibody, human IgG1, kappa, V domains shown)
VH: B4 VH with Q13K, N30S, N32Y, S49G, R89K, A90T, N104H
VL: B5 VL with G34A, N35K, T36I
Take B16: the EC50 was 0.38 nM in assay [1] and 0.31 nM in assay [6].

B17: PR004339 (antibody, human IgG1, kappa, V domains shown)
VH: B1 VH with N32Y, M55S, N79S
VL: B5 VL with L15P, Q17E, N35K, T36I, Q42L, R44K, R50Q
notes: as for B5
Take B17: the EC50 in assay [4] stood at 0.95 nM; in assay [5] it was 9.58 nM.

B18: PR004332 (antibody, human IgG1, kappa, V domains shown)
VH: B4 VH with Q13K, N32Y, S49G, R89K, A90T, F112Y
VL: B1 VL with T9P, L12P, Y31H, N35K, T36I, F101L, G105A
notes: as for B4
B18: the results for the EC50 in assay [4] and in assay [5] were 0.73 nM and 2.75 nM, respectively.

B19: PR006161 (antibody, human IgG1, kappa, V domains shown)
VH: B4 VH with Q13K, N30S, N32Y, S49G, N57Y, R89K, A90T, N104H, N106K
VL: B5 VL with G34A, N35K, T36I
As to B19, the EC50 was 0.38 nM in assay [1] and 0.43 nM in assay [6].

B20: PR004340 (antibody, human IgG1, kappa, V domains shown)
VH: B1 VH with N32Y, M55S, N79S
VL: B5 VL with L15P, Q17E, Q42L, R44K, R50Q
notes: as for B5
For B20, the results for the EC50 in assay [4] and in assay [5] were 1.06 nM and 5.35 nM, respectively.

B21: PR006156 (antibody, human IgG1, kappa, V domains shown)
VH: B4 VH with Q13K, N30S, N32Y, S49G, R89K, A90T, N104I
VL: B5 VL with G34A, N35K, T36I
B21: the EC50 in assay [1] is 0.38 nM; in assay [6], 0.3 nM.

B22: PR006157 (antibody, human IgG1, kappa, V domains shown)
VH: B4 VH with Q13K, N30S, N32Y, S49G, N57Y, R89K, A90T, N104I
VL: B5 VL with G34A, N35K, T36I
With B22, the figures for the EC50 in assay [1] and in assay [6] were 0.73 nM and 0.42 nM, respectively.
